{
  "source": "paper PMC11316719",
  "about": "“Unveiling the importance of the C-terminus in the sugar acid dehydratase of the IlvD/EDD superfamily” (Applied Microbiology and Biotechnology, 2024)",
  "molecules": {"B1": {"name": "RlArDHT (L-arabinonate dehydratase from Rhizobium leguminosarum bv. trifolii) (Rhizobium leguminosarum bv. trifolii WSM2304) (protein)", "chain": "MKKKAEWPRKLRSQEWYGGTSRDVIYHRGWLKNQGYPHDLFDGRPVIGILNTWSDMTPCNGHLRELAEKVKAGVWEAGGFPLEVPVFSASENTFRPTAMMYRNLAALAVEEAIRGQPMDGCVLLVGCDKTTPSLLMGAASCDLPSIVVTGGPMLNGYFRGERVGSGTHLWKFSEMVKAGEMTQAEFLEAEASMSRSSGTCNTMGTASTMASMAEALGMALSGNAAIPGVDSRRKVMAQLTGRRIVQMVKDDLKPSEIMTKQAFENAIRTNAAIGGSTNAVIHLLAIAGRVGIDLSLDDWDRCGRDVPTIVNLMPSGKYLMEEFFYAGGLPVVLKRLGEAGLLHKDALTVSGETVWDEVKDVVNWNEDVILPAEKALTSSGGIVVLRGNLAPKGAVLKPSAASPHLLVHKGRAVVFEDIDDYKAKINDDNLDIDENCIMVMKNCGPKGYPGMAEVGNMGLPPKVLKKGILDMVRISDARMSGTAYGTVVLHTSPEAAVGGPLAVVKNGDMIELDVPNRRLHLDISDEELARRLAEWQPNHDLPTSGYAFLHQQHVEGADTGADLDFLKGCRGNAVGKDSH", "notes": "full length with N-terminal Strep-tag II (WSHPQFEK), codon-optimized, pBAT4, E. coli BL21(DE3); 579 residues without tag; [2Fe-2S] and Mg2+; homotetramer"}, "B2": {"name": "RlArDHT (L-arabinonate dehydratase from Rhizobium leguminosarum bv. trifolii) (Rhizobium leguminosarum bv. trifolii WSM2304; H579L) (protein)", "chain": "B1 chain with H579L", "notes": "as for B1"}, "B3": {"name": "L-arabinonate dehydratase from Rhizobium leguminosarum bv. trifolii, variant H579L (enzyme, UniProt B5ZZ34 1-579, looked up)", "chain": "B1 chain with H579L", "modifications": "KCX129 (6N-carboxylysine)", "notes": "L-arabinonate dehydratase (RlArDHT) from Rhizobium leguminosarum bv. trifolii, gene araD, GenBank KT260159, codon-optimised synthetic gene; His579 is the last C-terminal residue, changed to Leu; Holds a [2Fe-2S] cluster and Mg2+ in each chain; co-crystallised with 2-oxobutyrate (seen in chain D only); The introduction calls the same variant H588L, which may count the N-terminal tag residues; also …"}},
  "key": {"[1]": {"biological_target": "T1, RlArDHT (L-arabinonate dehydratase from Rhizobium leguminosarum bv. trifolii) (Rhizobium leguminosarum, UniProt B5ZZ34, H579L)", "T1 construct": "gene araD; full length with N-terminal Strep-tag II (WSHPQFEK), codon-optimized, pBAT4, E. coli BL21(DE3); 579 residues without tag; [2Fe-2S] and Mg2+; homotetramer", "T1 sequence (B5ZZ34 whole entry H579L)": "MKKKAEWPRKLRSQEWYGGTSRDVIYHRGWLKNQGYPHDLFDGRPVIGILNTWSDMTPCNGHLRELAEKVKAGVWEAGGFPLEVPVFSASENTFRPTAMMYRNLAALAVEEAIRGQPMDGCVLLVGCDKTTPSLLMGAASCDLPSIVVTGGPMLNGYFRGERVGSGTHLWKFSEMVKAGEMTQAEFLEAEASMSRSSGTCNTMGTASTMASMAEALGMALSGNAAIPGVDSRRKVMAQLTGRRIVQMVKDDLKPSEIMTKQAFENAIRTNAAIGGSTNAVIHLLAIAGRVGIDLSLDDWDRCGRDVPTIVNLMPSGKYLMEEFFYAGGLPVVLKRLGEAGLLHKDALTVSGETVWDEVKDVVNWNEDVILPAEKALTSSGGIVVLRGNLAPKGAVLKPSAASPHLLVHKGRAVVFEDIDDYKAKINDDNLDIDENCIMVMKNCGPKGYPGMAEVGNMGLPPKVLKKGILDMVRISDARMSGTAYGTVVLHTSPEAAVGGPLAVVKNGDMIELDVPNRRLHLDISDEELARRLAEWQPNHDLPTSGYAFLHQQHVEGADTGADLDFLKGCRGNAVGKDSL", "test": "X-ray crystal structure, […] Å, co-crystallized", "format": "binding", "details": "product analog; active site of chain D, coordinated to Mg2+; [2Fe-2S] present; pH 8.5, 20 °C"}, "purified protein [2]": {"substrate": "O=C(O)[C@H](O)[C@@H](O)[C@H](O)CO", "test": "purified protein", "format": "biochemical, Rhizobium leguminosarum", "details": "pH 8.0, 30 °C, 50 mM Tris-HCl, 10 mM MgCl2"}, "purified protein [3]": {"substrate": "O=C(O)[C@H](O)[C@@H](O)[C@@H](O)[C@H](O)CO", "test": "purified protein", "format": "biochemical, Rhizobium leguminosarum", "details": "pH 8.0, 30 °C, 50 mM Tris-HCl, 10 mM MgCl2"}, "purified protein [4]": {"substrate": "O=C(O)[C@H](O)[C@@H](O)[C@@H](O)CO", "test": "purified protein", "format": "biochemical, Rhizobium leguminosarum", "details": "pH 8.0, 30 °C, 50 mM Tris-HCl, 10 mM MgCl2"}, "purified protein [5]": {"substrate": "O=C(O)[C@H](O)[C@@H](O)[C@H](O)[C@H](O)CO", "test": "purified protein", "format": "biochemical, Rhizobium leguminosarum", "details": "pH 8.0, 30 °C, 50 mM Tris-HCl, 10 mM MgCl2"}, "purified protein [6]": {"substrate": "C[C@@H](O)[C@H](O)[C@H](O)[C@@H](O)C(=O)O", "test": "purified protein", "format": "biochemical, Rhizobium leguminosarum", "details": "pH 8.0, 30 °C, 50 mM Tris-HCl, 10 mM MgCl2"}, "[7]": {"biological_target": "the molecule itself", "test": "crystal structure; H579L co-crystallised with 2-oxobutyrate, hanging-drop vapor diffusion at 20 °C; 14% (w/v) PEG 10000, 200 mM ammonium acetate, 100 mM Tris pH 8.5; molecular replacement with PDB 5J84"}},
  "note": "Changes are numbered by the printed parent chain. In names and notes the source's numbering stands.",
  "data": [
    {"molecule": "CCC(=O)C(=O)O", "note": "[2-oxobutyrate]", "values": [
      {"measurement": "X-ray crystal structure, 2.4 Å, co-crystallized", "setting": "[1]", "result": "2-Oxobutyrate was refined inside the substrate-binding cavity in chain D of the H579L variant"}
    ]},
    {"molecule": "B1", "values": [
      {"measurement": "Km", "setting": "purified protein [2]", "result": "1300 ± 300", "unit": "µM"},
      {"measurement": "kcat", "setting": "purified protein [2]", "result": "0.413 ± 0.0217", "unit": "s⁻¹"},
      {"measurement": "kcat/Km", "setting": "purified protein [2]", "result": "317 ± 66.7", "unit": "M⁻¹ s⁻¹"},
      {"measurement": "Km", "setting": "purified protein [3]", "result": "740 ± 150", "unit": "µM"},
      {"measurement": "kcat", "setting": "purified protein [3]", "result": "11.5 ± 0.5", "unit": "s⁻¹"},
      {"measurement": "kcat/Km", "setting": "purified protein [3]", "result": "15500 ± 2330", "unit": "M⁻¹ s⁻¹"},
      {"measurement": "Km", "setting": "purified protein [4]", "result": "1200 ± 200", "unit": "µM"},
      {"measurement": "kcat", "setting": "purified protein [4]", "result": "11.3 ± 0.5", "unit": "s⁻¹"},
      {"measurement": "kcat/Km", "setting": "purified protein [4]", "result": "9500 ± 1170", "unit": "M⁻¹ s⁻¹"},
      {"measurement": "Km", "setting": "purified protein [5]", "result": "5700 ± 1500", "unit": "µM"},
      {"measurement": "kcat", "setting": "purified protein [5]", "result": "6.5 ± 0.833", "unit": "s⁻¹"},
      {"measurement": "kcat/Km", "setting": "purified protein [5]", "result": "1130 ± 150", "unit": "M⁻¹ s⁻¹"},
      {"measurement": "Km", "setting": "purified protein [6]", "result": "240 ± 70", "unit": "µM"},
      {"measurement": "kcat", "setting": "purified protein [6]", "result": "17.5 ± 1", "unit": "s⁻¹"},
      {"measurement": "kcat/Km", "setting": "purified protein [6]", "result": "73300 ± 18300", "unit": "M⁻¹ s⁻¹"}
    ]},
    {"molecule": "B2", "values": [
      {"measurement": "Km", "setting": "purified protein [2]", "result": "1200 ± 200", "unit": "µM"},
      {"measurement": "kcat", "setting": "purified protein [2]", "result": "0.107 ± 0.00333", "unit": "s⁻¹"},
      {"measurement": "kcat/Km", "setting": "purified protein [2]", "result": "88.3 ± 11.7", "unit": "M⁻¹ s⁻¹"},
      {"measurement": "Km", "setting": "purified protein [3]", "result": "900 ± 150", "unit": "µM"},
      {"measurement": "kcat", "setting": "purified protein [3]", "result": "1.48 ± 0.0667", "unit": "s⁻¹"},
      {"measurement": "kcat/Km", "setting": "purified protein [3]", "result": "1580 ± 183", "unit": "M⁻¹ s⁻¹"},
      {"measurement": "Km", "setting": "purified protein [4]", "result": "1000 ± 200", "unit": "µM"},
      {"measurement": "kcat", "setting": "purified protein [4]", "result": "2 ± 0.0833", "unit": "s⁻¹"},
      {"measurement": "kcat/Km", "setting": "purified protein [4]", "result": "2000 ± 333", "unit": "M⁻¹ s⁻¹"},
      {"measurement": "Km", "setting": "purified protein [5]", "result": "5400 ± 900", "unit": "µM"},
      {"measurement": "kcat", "setting": "purified protein [5]", "result": "0.667 ± 0.05", "unit": "s⁻¹"},
      {"measurement": "kcat/Km", "setting": "purified protein [5]", "result": "125 ± 11.7", "unit": "M⁻¹ s⁻¹"},
      {"measurement": "Km", "setting": "purified protein [6]", "result": "820 ± 60", "unit": "µM"},
      {"measurement": "kcat", "setting": "purified protein [6]", "result": "21.5 ± 0.5", "unit": "s⁻¹"},
      {"measurement": "kcat/Km", "setting": "purified protein [6]", "result": "26200 ± 1330", "unit": "M⁻¹ s⁻¹"}
    ]},
    {"molecule": "B3", "values": [
      {"measurement": "stoichiometry N", "setting": "[7]", "result": 4}
    ]}
  ]
}
